As a reminder, the stoichiometry N is a count of units in the complex or per binding partner.

We go through three molecules from article PMC6457933 (Science Advances, 2019).

Holding throughout (assay): crystal structure
The target of data set [1] is KR2 S254A mutant (Krokinobacter eikastus).
In data set [2] the target is KR2 G263F mutant (Krokinobacter eikastus).
The data set “crystal structure” deals with the molecule itself.

As for KR2 S254A mutant (natural protein), the stoichiometry N in data set [1] worked out at 5.
The molecule KR2 G263F mutant (natural protein) yielded a stoichiometry N in data set [2] of 5.

B1: Krokinobacter eikastus rhodopsin 2 (KR2), wild type (natural protein)
chain: MTQELGNANFENFIGATEGFSEIAYQFTSHILTLGYAVMLAGLLYFILTIKNVDKKFQMSNILSAVVMVSAFLLLYAQAQNWTSSFTFNEEVGRYFLDPSGDLFNNGYRYLNWLIDVPMLLFQILFVVSLTTSKFSSVRNQFWFSGAMMIITGYIGQFYEVSNLTAFLVWGAISSAFFFHILWVMKKVINEGKEGISPAGQKILSNIWILFLISWTLYPGAYLMPYLTGVDGFLYSEDGVMARQLVYTIADVSSKVIYGVLLGNLAITLSKNKELVEANS
modifications: retinal covalently bound to Lys255 via the Schiff base
As to B1, the “stoichiometry N” value in the data set “crystal structure” came to 5.
